{"source": "patent CN105542009A", "about": "(UNIV NANCHANG, dated 2016)", "binders": {"B1": {"name": "抗前列腺特异性膜抗原单域重链抗体噬菌体阳性克隆 (VHH)", "VHH": "QVQLVESGGGLVQAGGSLRLSCAASGRTFSRRDMGWFRQAPGKEREFVASISRSSAYTNYADSVKDRFTISRDNAKNTVYLQMYNLKPEDTAVYYCAAANYSTTRASAYRYWGQGTQVTVSS", "notes": "also called 针对前列腺特异性膜抗原的单域重链抗体阳性克隆; 展示本发明所述纳米抗体的噬菌体克隆; not shown: the phage coat protein fusion and any linker or tag are not described"}}, "key": {"[1]": {"molecular_target": "T1, 前列腺特异性膜抗原 (PSMA) on LNCaP cells (UniProt Q04609 1-750, limits assumed)", "T1 construct": "whole, on cells; Endogenous PSMA on LNCaP cells; MKN45 cells (no PSMA) served as negative cells; also called prostate specific membrane antigen", "T1 sequence (Q04609 whole entry)": "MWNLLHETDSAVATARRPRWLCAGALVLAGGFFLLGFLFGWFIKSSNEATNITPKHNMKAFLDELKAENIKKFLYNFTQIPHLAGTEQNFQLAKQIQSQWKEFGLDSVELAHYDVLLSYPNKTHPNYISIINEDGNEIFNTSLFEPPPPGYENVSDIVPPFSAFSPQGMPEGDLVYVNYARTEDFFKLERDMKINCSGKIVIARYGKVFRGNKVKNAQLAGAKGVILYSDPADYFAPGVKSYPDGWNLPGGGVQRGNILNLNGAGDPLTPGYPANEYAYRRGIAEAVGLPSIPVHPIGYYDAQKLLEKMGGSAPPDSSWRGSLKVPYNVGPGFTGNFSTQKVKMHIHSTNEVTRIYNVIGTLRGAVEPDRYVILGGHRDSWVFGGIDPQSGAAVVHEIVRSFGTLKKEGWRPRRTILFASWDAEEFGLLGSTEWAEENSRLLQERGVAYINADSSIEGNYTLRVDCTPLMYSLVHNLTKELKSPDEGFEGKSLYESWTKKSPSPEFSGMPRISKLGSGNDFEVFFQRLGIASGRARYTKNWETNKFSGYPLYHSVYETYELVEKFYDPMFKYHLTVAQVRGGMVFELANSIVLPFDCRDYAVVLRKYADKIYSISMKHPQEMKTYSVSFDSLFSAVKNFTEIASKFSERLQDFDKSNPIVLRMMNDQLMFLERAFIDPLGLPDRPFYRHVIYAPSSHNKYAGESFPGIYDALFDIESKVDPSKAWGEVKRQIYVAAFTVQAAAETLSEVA", "experiment": "cell ELISA on fixed LNCaP (PSMA+) against MKN45 (PSMA-) cells, HRP-anti-M13 detection"}, "[2]": {"molecular_target": "T2, PSMA胞外区蛋白 (重组表达的前列腺特异性膜抗原膜外区) (UniProt Q04609 44-750)", "T2 construct": "extracellular domain; also called PSMA蛋白; PSMA抗原; not shown: His tag from vector pRAG2a (purified by HisTrap, detected by anti-His antibody)", "T2 sequence (Q04609 44-750)": "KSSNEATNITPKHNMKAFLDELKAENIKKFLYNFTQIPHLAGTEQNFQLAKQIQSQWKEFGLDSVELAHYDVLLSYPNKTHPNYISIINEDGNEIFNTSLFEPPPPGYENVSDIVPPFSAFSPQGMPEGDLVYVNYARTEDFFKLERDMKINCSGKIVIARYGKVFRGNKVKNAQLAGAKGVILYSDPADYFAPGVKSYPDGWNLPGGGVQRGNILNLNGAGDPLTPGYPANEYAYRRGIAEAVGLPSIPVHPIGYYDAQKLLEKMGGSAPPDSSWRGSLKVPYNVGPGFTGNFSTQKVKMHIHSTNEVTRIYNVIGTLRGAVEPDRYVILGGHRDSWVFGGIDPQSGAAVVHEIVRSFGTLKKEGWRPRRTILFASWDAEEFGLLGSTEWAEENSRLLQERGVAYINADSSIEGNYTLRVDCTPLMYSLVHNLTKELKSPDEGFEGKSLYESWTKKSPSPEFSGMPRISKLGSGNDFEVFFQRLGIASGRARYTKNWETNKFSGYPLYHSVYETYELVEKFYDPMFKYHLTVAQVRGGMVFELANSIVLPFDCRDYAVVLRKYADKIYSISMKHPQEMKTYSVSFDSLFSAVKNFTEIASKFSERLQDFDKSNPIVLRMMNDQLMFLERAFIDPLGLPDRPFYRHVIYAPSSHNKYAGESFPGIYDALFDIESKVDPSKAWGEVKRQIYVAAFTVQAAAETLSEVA", "experiment": "indirect phage-ELISA, PSMA extracellular region coated at 5 μg/mL, HRP-anti-M13 detection"}}, "data": [{"binder": "B1", "values": [{"measurement": "binding result", "setting": "[1]", "value": "binds"}, {"measurement": "binding result", "setting": "[2]", "value": "binds"}]}]}
